Laboratory results reported in paper PMC4685008.

Legend:
mGluR5 (endogenous) [1] = molecular target: mGluR5 (endogenous) (UniProt Q3UVX5); assay: co-IP with myc antibody, mGluR5 blot
mGluR5 (endogenous) [2] = molecular target: mGluR5 (endogenous) (UniProt Q3UVX5); assay: co-IP of myc-Homer; conditions: reference: H2WT replacement; sites S117,S216

“Homer1 (H1, long form) (from UniProt Q9Z2Y3) H1mycS117A” was tested, and the “binding against the reference” value (mGluR5 (endogenous) [1]; reference: H1mycWT, sites S117) was “stronger”.
In the case of “Homer2 (H2) (from UniProt Q9QWW1) H2mycS117/216AA”, the “binding against the reference” value (mGluR5 (endogenous) [1]; reference: H2mycWT, sites S117,S216) is reported as “stronger”.
For “Homer2 (H2) (from UniProt Q9QWW1) H2S117/216AA replacement”, the “binding against the reference” value (mGluR5 (endogenous) [2]) was “stronger”.
